Reference: patent US20240043504A1 (published 2024)
Changes are numbered by the printed parent chain.

T1: MERS-CoV Spike Protein (ECD, aa 1-1297, His Tag) (Sino 40069-[change]) (MERS-CoV, UniProt K9N5Q8 18-1297)
T1 sequence: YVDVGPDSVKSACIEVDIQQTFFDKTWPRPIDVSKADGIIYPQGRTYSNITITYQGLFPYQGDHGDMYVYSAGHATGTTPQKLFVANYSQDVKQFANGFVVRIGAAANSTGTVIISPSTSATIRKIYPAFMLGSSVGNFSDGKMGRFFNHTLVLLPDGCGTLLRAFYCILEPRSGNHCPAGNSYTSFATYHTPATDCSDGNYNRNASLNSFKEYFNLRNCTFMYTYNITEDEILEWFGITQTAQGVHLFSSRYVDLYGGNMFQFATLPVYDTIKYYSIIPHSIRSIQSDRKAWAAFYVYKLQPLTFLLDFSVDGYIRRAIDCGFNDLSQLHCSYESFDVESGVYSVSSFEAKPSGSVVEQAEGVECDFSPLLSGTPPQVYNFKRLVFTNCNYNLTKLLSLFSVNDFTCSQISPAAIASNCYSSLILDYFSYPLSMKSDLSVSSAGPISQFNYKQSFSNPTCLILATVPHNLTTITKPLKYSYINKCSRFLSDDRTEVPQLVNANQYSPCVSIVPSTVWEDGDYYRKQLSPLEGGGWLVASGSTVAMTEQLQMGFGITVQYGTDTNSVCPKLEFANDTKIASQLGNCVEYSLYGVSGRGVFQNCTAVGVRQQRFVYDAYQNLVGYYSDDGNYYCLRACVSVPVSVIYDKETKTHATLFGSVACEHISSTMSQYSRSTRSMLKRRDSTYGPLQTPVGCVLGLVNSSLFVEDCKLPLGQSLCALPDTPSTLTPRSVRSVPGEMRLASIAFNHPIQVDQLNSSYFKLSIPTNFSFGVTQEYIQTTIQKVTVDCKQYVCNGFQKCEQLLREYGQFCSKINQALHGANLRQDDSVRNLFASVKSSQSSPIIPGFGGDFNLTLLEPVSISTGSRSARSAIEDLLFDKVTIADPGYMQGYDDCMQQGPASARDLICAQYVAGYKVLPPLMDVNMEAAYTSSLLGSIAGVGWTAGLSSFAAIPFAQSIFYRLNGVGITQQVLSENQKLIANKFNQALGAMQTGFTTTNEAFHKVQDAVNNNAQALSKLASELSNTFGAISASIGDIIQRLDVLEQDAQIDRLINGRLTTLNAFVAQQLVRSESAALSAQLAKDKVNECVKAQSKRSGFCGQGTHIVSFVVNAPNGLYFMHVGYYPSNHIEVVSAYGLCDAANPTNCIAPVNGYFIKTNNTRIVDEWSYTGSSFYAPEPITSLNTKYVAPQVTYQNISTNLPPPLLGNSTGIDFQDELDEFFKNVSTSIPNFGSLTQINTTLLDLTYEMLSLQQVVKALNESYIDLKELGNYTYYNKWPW

T2: MERS-CoV Spike Protein S2 (aa 726-1296, His Tag) (Sino 40070-[change]) (MERS-CoV, UniProt K9N5Q8 726-1296)
T2 sequence: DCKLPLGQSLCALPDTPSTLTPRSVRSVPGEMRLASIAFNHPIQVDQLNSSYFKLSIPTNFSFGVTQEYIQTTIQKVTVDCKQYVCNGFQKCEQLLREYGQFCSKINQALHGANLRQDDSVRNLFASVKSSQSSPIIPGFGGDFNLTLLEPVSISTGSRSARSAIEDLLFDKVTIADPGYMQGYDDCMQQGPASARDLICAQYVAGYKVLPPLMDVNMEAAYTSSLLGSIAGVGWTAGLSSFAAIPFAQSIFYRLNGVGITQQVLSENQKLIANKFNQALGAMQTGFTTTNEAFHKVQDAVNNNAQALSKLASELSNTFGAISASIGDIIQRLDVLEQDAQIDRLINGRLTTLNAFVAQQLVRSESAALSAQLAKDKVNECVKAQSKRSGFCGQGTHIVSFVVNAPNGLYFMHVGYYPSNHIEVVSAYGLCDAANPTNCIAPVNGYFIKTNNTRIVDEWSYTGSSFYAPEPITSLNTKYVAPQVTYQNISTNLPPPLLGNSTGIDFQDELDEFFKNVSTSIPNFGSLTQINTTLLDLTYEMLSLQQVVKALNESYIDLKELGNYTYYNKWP

T3: MERS-CoV (NCoV/Novel coronavirus) Spike Protein fragment (RBD, aa 367-606, His Tag) (Sino 40071-V08B1) (MERS-CoV, UniProt K9N5Q8 367-606)
T3 sequence: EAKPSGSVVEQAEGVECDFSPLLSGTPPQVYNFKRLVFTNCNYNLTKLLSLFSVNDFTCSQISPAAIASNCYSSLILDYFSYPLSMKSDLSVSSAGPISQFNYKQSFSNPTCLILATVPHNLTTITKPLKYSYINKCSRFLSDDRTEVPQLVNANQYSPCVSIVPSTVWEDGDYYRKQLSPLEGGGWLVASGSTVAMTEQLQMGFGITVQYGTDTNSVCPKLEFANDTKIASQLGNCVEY

T4: MERS-CoV (NCoV/Novel coronavirus) Spike Protein S1 Protein (aa 1-725, His Tag) (Sino 40069-V08B1) (MERS-CoV, UniProt K9N5Q8 18-725)
T4 sequence: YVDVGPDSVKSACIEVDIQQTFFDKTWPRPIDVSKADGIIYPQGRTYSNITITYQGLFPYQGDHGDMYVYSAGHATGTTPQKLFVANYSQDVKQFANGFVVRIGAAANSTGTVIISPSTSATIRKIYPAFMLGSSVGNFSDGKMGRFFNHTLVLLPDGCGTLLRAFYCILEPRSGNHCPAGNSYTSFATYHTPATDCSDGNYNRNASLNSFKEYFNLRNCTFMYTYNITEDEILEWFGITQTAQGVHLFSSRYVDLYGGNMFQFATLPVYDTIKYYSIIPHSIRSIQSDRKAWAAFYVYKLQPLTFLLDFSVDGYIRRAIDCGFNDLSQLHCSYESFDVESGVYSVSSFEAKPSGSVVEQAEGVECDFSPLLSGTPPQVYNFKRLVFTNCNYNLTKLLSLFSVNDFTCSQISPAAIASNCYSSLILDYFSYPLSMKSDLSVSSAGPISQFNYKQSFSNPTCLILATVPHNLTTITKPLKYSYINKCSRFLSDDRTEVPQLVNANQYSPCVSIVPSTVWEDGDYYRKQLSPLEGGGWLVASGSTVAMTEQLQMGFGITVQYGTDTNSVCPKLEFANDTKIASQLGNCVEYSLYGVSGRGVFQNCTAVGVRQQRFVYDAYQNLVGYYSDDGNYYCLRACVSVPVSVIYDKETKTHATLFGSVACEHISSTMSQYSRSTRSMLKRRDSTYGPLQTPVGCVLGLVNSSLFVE

B1: mAb10956 (antibody, V domains shown)
VH: EVQLVESGGGLVQPGGSLRLSCAASGLTVSSNYMSWVRQAPGKGLEWVSVIYSGGSTFYADSVKGRFTISRDNSKNTLYLQMNSLRAEDTAVYYCARDLIKYGMDVWGQGTTVTVSS
VL: not shown
B2: mAb10934 (antibody, V domains shown)
VH: not shown
VL: DIQMTQSPSSLSASVGDRVTITCQASQDIWNYINWYQQKPGKAPKLLIYDASNLKTGVPSRFSGSGSGTDFTFTISSLQPEDIATYYCQQHDDLPPTFGQGTKVEIKR
B3: mAb10935 (antibody, V domains shown)
VH: EVQLVESGGGLVQPGGSLRLSCAASGFTVSSNYMSWVRQAPGKGLEWVSLIYSGGSTYYADSVKGRFTISRHNSKNTLYLQMNSLRSEDTAVYYCARVPLGDYYYGMDVWGQGTTVTVSS
VL: B2 VL with W30N, N31K, I33L, K55E, H91S, D93N, P96L, Q100G
B4: mAb10915 (antibody, V domains shown)
VH: EVQLVESGGGLVQPGGSLRLSCAASGFTVSSNYMNWVRQAPGKGLEWVSVIYSGGSTFYADSVKGRFTISRHNSKNTLYLQMNSLRPEDTAVYYCARDLGGYFDYWGQGTLVTVSS
VL: not shown
B5: mAb10985 (antibody, V domains shown)
VH: EVQLVESGGGLVQPGRSLRLSCAASGFTFDDYAMHWVRQAPGKGLEWVSGISWNRGSIGYADSVKGRFTISRDNAKNSLYLQMSSLRAEDTALYYCAKDGERWDSVVVPSARNGMDVWGQGTTVTVSS
VL: QSVLTQPPSVSGAPGQRVTISCTGSSSNIGAGYDVHWYQQLPGTAPKLLIYGNSNRPSGVPDRFSGSKSGTSASLAITGLQAEDEADYYCQSYDSSLSGSYVFGTGTKVTVLG
B6: mAb10982 (antibody, V domains shown)
VH: EVQLVESGGGLVQPGGSLRLSCAASGLTVSSNYMSWVRQAPGKGLEWVSVIYSGGTTYYADSVKGRFTISRHNSKNTLSLQMNSLRAEDTAVYYCARGEGANYYGMDVWGQGTTVTVSS
VL: B5 VL with A31T, S100Y, Y101V, T105G, V109L
B7: mAb10986 (antibody, V domains shown)
VH: EVQLVESGGGLVQPGGSLRLSCAASEFTVSSNYMSWVRQAPGKGLEWVSVIYSGGSTFYADSVKGRFTISRDNSKNTLYLQMNSLRAEDTAVYYCARALPYGDLHFDYWGQGTLVTVSS
VL: B5 VL with A31T, S54T, G99D
B8: mAb10921 (antibody, V domains shown)
VH: EVQLVESGGGLVQPGGSLRLSCAASGITVSSNYMSWVRQAPGKGLEWVSVIYSGGSTFYADSVKGRFTISRHNSKNTLYLQMNSLRAEDTAVYYCARERNFDAFDIWGQGTMVTVSS
VL: DIQMTQSPSSVSASVGDRVTITCRASQGISSWLAWYQQKPGKAPKLLIYAASSLQSGVPSRFSGSGSGTDFTLTISSLQPEDFATYYCQQANSFPLFTFGPGTKVDIKR
B9: mAb10957 (antibody, V domains shown)
VH: B1 VH with L27V, Y79F, A87I, I100G, K101P
VL: B8 VL with M4L, S10F, V11L, W32Y, S53T, D70Q, T72I, A91L, F94Y, L96G
B10: mAb10933 (antibody, V domains shown)
VH: QVQLVESGGGLVKPGGSLRLSCAASGFTFSDYYMSWIRQAPGKGLEWVSYITYSGSTIYYADSVKGRFTISRDNAKSSLYLQMNSLRAEDTAVYYCARDRGTTMVPFDYWGQGTLVTVSS
VL: B2 VL with W30T, I33L, D50A, K55E, S77G, H91Y, D93N, P96L, Q100G

Each binder was assayed against SARS-CoV-2 Spike Protein (RBD)(R319-F541).mFc (SARS-CoV-2) (assay: Luminex, supernatant).
For B1, the MFI was 28300 MFI.
B2 gave an MFI of 34300 MFI.
B3 showed an MFI of 35900 MFI.
B4 showed an MFI of 31800 MFI.
In the case of B5, the MFI is reported as 29400 MFI.
With B6 the MFI was 23300 MFI.
With B7 the MFI was 28400 MFI.
B8 was tested, and the MFI was 19400 MFI.
B9 was tested, and the MFI was 18700 MFI.

These binders were tested against SARS-CoV-2 Spike Protein (RBD)(R319-F541).hFc (SARS-CoV-2) (assay: Luminex, supernatant).
Binder B1 has an MFI of 30200 MFI.
B2 gave an MFI of 35800 MFI.
With B3 the MFI was 35600 MFI.
B4 was tested, and the MFI was 32400 MFI.
In the case of B5, the MFI is reported as 31100 MFI.
B6 was tested, and the MFI was 23000 MFI.
For B8, the MFI was 22300 MFI.
Binder B9 has an MFI of 22600 MFI.

The binders below were run against Human SARS Coronavirus Spike S1 Subunit Protein (His Tag) (Sino 40150-V08B1) (Human SARS Coronavirus, UniProt P59594 14-667) (assay: Luminex, supernatant).
B3 was tested, and the MFI was 21 MFI.
For B10, the MFI was 18 MFI.
In the case of B4, the MFI is reported as 21 MFI.
Work on B5 yielded an MFI of 22700 MFI.
Work on B6 yielded an MFI of 24 MFI.
B7 gave an MFI of 21 MFI.
B8 was tested, and the MFI was 19 MFI.

The binders below were run against T1, MERS-CoV Spike Protein (ECD, aa 1-1297, …) (assay: Luminex, supernatant).
B2 gave an MFI of 15 MFI.
Binder B3 has an MFI of 15 MFI.
In the case of B5, the MFI is reported as 18 MFI.
B7 showed an MFI of 15 MFI.
B8 gave an MFI of 19 MFI.

What follows are binders tested against T2, MERS-CoV Spike Protein S2 (aa 726-1296, …) (assay: Luminex, supernatant).
For B3, the MFI was 18 MFI.
For B5, the MFI was 28 MFI.
Work on B7 yielded an MFI of 19 MFI.
Binder B8 has an MFI of 19 MFI.

Each binder was assayed against T3, MERS-CoV (NCoV/Novel coronavirus) Spike … (assay: Luminex, supernatant).
Binder B2 has an MFI of 24 MFI.
In the case of B3, the MFI is reported as 25 MFI.
B5 showed an MFI of 31 MFI.
With B7 the MFI was 27 MFI.
With B8 the MFI was 23 MFI.

These binders were tested against T4, MERS-CoV (NCoV/Novel coronavirus) Spike … (assay: Luminex, supernatant).
Work on B2 yielded an MFI of 20 MFI.
B5 gave an MFI of 22 MFI.
With B7 the MFI was 20 MFI.
